The text below walks through data of the Immune Epitope Database (IEDB).

pIC50, pKd: −log10 of the molar value. A value given as a limit tells only on which side of the number the result lay.

In one assay the target is HLA-B*07:02. Description: IEDB peptide-MHC binding, purified MHC/competitive/radioactivity; filed as Kd, often an IC50 or EC50 that approximates it; ≥ and ≤ were set here for values at or beyond the usual limits of such assays.
Another assay concerns the target HLA-B*35:01. Described as above.
The next assay has as its target HLA-B*51:01. The description is as above.
Another assay addresses HLA-B*53:01. The assay is described as above.
The target in the next assay is HLA-B*54:01. The assay is described as above.
The next assay addresses HLA-A*30:01. Described as above.
For a further assay, the target named is HLA-A*01:01. Described as above.
The target of another assay is HLA-A*24:02. The experiment in a line: IEDB peptide-MHC binding, purified MHC/competitive/fluorescence; ≥ and ≤ were set here for values at or beyond the usual limits of such assays.
Assay [1] addresses HLA-A*02:01. The description is as above.
A further assay addresses HLA-A*03:01. The experiment in a line: IEDB peptide-MHC binding, purified MHC/competitive/radioactivity; filed as Kd, often an IC50 or EC50 that approximates it; ≥ and ≤ were set here for values at or beyond the usual limits of such assays.
For the next assay, the target named is HLA-A*11:01. Described as above. Particulars: source organism: Vaccinia virus WR.
For a further assay, the target named is HLA-A*31:01. Described as above. Particulars: source organism: Vaccinia virus WR.
Another assay concerns the target HLA-A*33:01. The description is as above. Particulars: source organism: Vaccinia virus WR.
The next assay deals with HLA-A*68:01. The description is as above. The conditions noted are these: source organism: Vaccinia virus WR.
Assay [2] has as its target HLA-A*02:01. The experiment in a line: IEDB peptide-MHC binding, purified MHC/competitive/fluorescence; filed as Kd, often an IC50 or EC50 that approximates it; ≥ and ≤ were set here for values at or beyond the usual limits of such assays.
[3] abbreviates: source organism: Mammarenavirus machupoense.
The mark [4] stands for this setting: source organism: Vaccinia virus WR.
Where [5] appears, read: source organism: Dengue virus 1 Brazil/97-11/1997.
Where [6] appears, read: source organism: Dengue virus 2 Jamaica/1409/1983.
Where [7] appears, read: source organism: Zaire ebolavirus.
[8] abbreviates: source organism: Triticum aestivum.
[9] abbreviates: source organism: SARS coronavirus Tor2.
The mark [10] stands for this setting: source organism: Dengue virus 3 Martinique/1243/1999.
[11] abbreviates: source organism: Sudan ebolavirus.
Setting [12] is: source organism: Vaccinia virus Copenhagen.

Usually pKd stands for the negative decadic logarithm of the Kd, by convention in mol/L. As to MLNNSLYYM, the negative-log Kd (pKd) was not above 4.11 with HLA-B*07:02 (setting [3]); 5.06 in the assay with HLA-B*35:01 (setting [3]); not above 4.44 with HLA-B*51:01 (setting [3]); 5.01 in the assay with HLA-B*53:01 (setting [3]); not above 4.44 with HLA-B*54:01 (setting [3]).

MPNESRVKQW: the negative logarithm of the Kd (pKd) is 5.62 with HLA-B*07:02 (setting [4]); 5.64 in the assay with HLA-B*35:01 (setting [4]); not above 4.16 in the assay with HLA-B*51:01 (setting [4]); 7.52 with HLA-B*53:01 (setting [4]); 5.27 in the assay with HLA-B*54:01 (setting [4]).

Take MSVISNPSK: in the assay with HLA-A*30:01 (setting [4]), the pKd is 7.71.

As to NAICSAVPVD, in the assay with HLA-A*30:01 (setting [5]), the pKd was 4.92.

Consider NPKASTISWM, for which the negative logarithm of the Kd (pKd) in the assay with HLA-B*07:02 (setting [4]) was 7.02; with HLA-B*35:01 (setting [4]), 5.12; with HLA-B*51:01 (setting [4]), not above 4.16; with HLA-B*53:01 (setting [4]), 5.09; in the assay with HLA-B*54:01 (setting [4]), not above 4.44.

In the case of NSALTLHWF, the negative logarithm of the Kd (pKd) with HLA-A*01:01 (source organism: Dengue virus 4 Dominica/814669/1981) is 5.63.

For the sequence NSEQGGKAY, in the assay with HLA-A*01:01 (setting [5]), the negative logarithm of the Kd (pKd) was 6.32.

Turning to NSRSTSLSV, the pKd in the assay with HLA-A*30:01 (setting [6]) is 7.83.

As usually defined, the pIC50 is −log10 of the IC50, conventionally taken in molar units. A lower pIC50 goes with a high IC50. Sequence PKAENTNTS showed a pIC50 with HLA-A*24:02 (setting [7]) of 4.21.

QDGLICGLR: the pIC50 with HLA-A*02:01 [1] (setting [7]) is 4.88; in the assay with HLA-A*24:02 (setting [7]), 6.37.

With QGLIQYPTA, the negative-log IC50 (pIC50) is 4.34 with HLA-A*02:01 [1] (setting [7]) and 4.90 with HLA-A*24:02 (setting [7]).

Regarding QPFPSQQPY, the negative-log Kd (pKd) is not above 4.11 with HLA-B*07:02 (setting [8]); 7.18 with HLA-B*35:01 (setting [8]); not above 4.36 with HLA-B*51:01 (setting [8]); 5.12 in the assay with HLA-B*53:01 (setting [8]); not above 4.11 with HLA-B*54:01 (setting [8]).

For QPQEQVPLV, the pKd with HLA-B*07:02 (setting [8]) was not above 4.11; with HLA-B*35:01 (setting [8]), not above 4.63; with HLA-B*51:01 (setting [8]), 5.32; with HLA-B*53:01 (setting [8]), not above 4.44; in the assay with HLA-B*54:01 (setting [8]), 4.92.

With QPQQLPQFEEI, the pKd was not above 4.19 in the assay with HLA-B*07:02 (setting [8]); not above 4.20 with HLA-B*35:01 (setting [8]); 4.85 with HLA-B*51:01 (setting [8]); not above 4.20 with HLA-B*53:01 (setting [8]); not above 4.20 in the assay with HLA-B*54:01 (setting [8]).

With QVHAEQGLI, the pIC50 with HLA-A*24:02 (setting [7]) is 4.33.

In the case of RAKSPTRQS, the negative logarithm of the Kd (pKd) with HLA-A*30:01 (setting [4]) is 6.59.

Consider RCLKPVILK, for which the pKd in the assay with HLA-A*03:01 (setting [5]) was 6.81; with HLA-A*30:01 (setting [5]) it was 6.66.

RDGVKRLEE had a negative-log IC50 (pIC50) with HLA-A*24:02 (setting [7]) not above 4.05.

Turning to RPNHTIKGSF, the pKd with HLA-B*07:02 (setting [9]) was 7.24; with HLA-B*35:01 (setting [9]), not above 4.16; with HLA-B*51:01 (setting [9]), not above 4.16; in the assay with HLA-B*53:01 (setting [9]), not above 4.16; with HLA-B*54:01 (setting [9]), not above 4.16.

Regarding RPSIGNVFKA, the pKd in the assay with HLA-B*07:02 (setting [4]) was 5.42; with HLA-B*35:01 (setting [4]) it was not above 4.16; with HLA-B*51:01 (setting [4]), not above 4.16; in the assay with HLA-B*53:01 (setting [4]) it was not above 4.44; in the assay with HLA-B*54:01 (setting [4]), 6.19.

As for RVRNRVSTG, the negative-log Kd (pKd) with HLA-A*30:01 (setting [10]) was 6.94.

Turning to RWGFRSGVP, the pIC50 is 4.79 in the assay with HLA-A*02:01 [1] (setting [11]) and 4.78 in the assay with HLA-A*24:02 (setting [11]).

The sequence SFFVWVIIL showed a negative logarithm of the IC50 (pIC50) with HLA-A*24:02 (setting [11]) not above 4.14.

As to SINVEYRFL, the negative logarithm of the IC50 (pIC50) is 4.57 in the assay with HLA-A*02:01 [1] (setting [4]) and 4.56 with HLA-A*24:02 (setting [4]).

As for STSSSYLYA, the negative logarithm of the Kd (pKd) with HLA-A*30:01 (setting [12]) was 7.88.

TFRERYSYK: the negative-log Kd (pKd) in the assay with HLA-A*03:01 (setting [4]) was 7.13; with HLA-A*11:01, 7.36; with HLA-A*30:01 (setting [4]), 9.05; in the assay with HLA-A*31:01, 7.84; with HLA-A*33:01, 7.54; with HLA-A*68:01, 6.90.

Consider TPNYMKLLV, for which the pKd is 7.29 with HLA-B*07:02 (setting [4]), 8.08 with HLA-B*35:01 (setting [4]), not above 4.11 with HLA-B*51:01 (setting [4]) and 7.51 in the assay with HLA-B*54:01 (setting [4]).

Take VTEEIAVQNW: in the assay with HLA-A*01:01 (setting [6]), the pKd is not above 4.41.

In the assay with HLA-A*24:02 (setting [7]), YHKILTAGL showed a pIC50 of 5.13.

The sequence YLLEMLWRL gave a pKd with HLA-A*02:01 [2] (source organism: Human herpesvirus 4 strain B95-8) of 8.35.

For YLSDSAINI, the pKd with HLA-A*02:01 [2] (setting [12]) was 8.89.

In the case of YTDRKWCFD, in the assay with HLA-A*01:01 (setting [10]), the pKd is 6.22.
